# Laboratory results published in patent publication US7390643B2, “Geranyl diphosphate synthase molecules, and nucleic acid molecules encoding same” (Washington State University Research Foundation, priority 2002, dated 2008).
# Substrate: C=C(C)CCO[P@@](=O)(O)OP(=O)(O)O
# Assay: Turnover rate of heterotetrameric Mentha GPP synthase (comparison)
# Assay type: biochemical
# Conditions: other: assuming two functional active sites
protein,measurement,value
"Mentha GPP synthase, heterotetrameric (dimer of heterodimers) (Mentha x piperita) (protein, probably E. coli, C-terminal His8 tag, transit peptide deleted) MSALVNPVAKWPQTIGVKDVHGGRRRRSRSTLFQSHPLRTEMPFSLYFSSPLKAPATFSVSAVYTKEGSEIRDKDPAPSTSPAFDFDGYMLRKAKSVNKALEAAVQMKEPLKIHESMRYSLLAGGKRVRPMLCIAACELVGGDESTAMPAACAVEMIHTMSLMHDDLPCMDNDDLRRGKPTNHMAFGESVAVLAGDALLSFAFEHVAAATKGAPPERIVRVLGELAVSIGSEGLVAGQVVDVCSEGMAEVGLDHLEFIHHHKTAALLQGSVVLGAILGGGKEEEVAKLRKFANCIGLLFQVVDDILDVTKSSKELGKTAGKDLVADKTTYPKLIGVEKSKEFADRLNREAQEQLLHFHPHRAAPLIALANYIAYRDN",kcat,2.4 s⁻¹
